Measured values published in patent US7037667.

Tested on: fluorescein thiocarbamoyl-labeled (FTC) casein

Chain of GST-TMPRSS2 protease domain (AA 255-492) (chain, as listed by the source): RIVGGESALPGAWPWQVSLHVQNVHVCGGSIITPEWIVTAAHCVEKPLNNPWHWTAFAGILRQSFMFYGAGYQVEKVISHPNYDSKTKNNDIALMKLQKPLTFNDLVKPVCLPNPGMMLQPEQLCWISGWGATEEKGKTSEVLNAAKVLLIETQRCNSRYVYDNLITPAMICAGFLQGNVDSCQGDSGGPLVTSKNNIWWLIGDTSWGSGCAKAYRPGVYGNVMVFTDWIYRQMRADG

Q: Which “protease activity, fluorescence of FTC-casein (EnzChek protease assay)” value does the source give for “GST-TMPRSS2 protease domain (AA 255-492)” here?
A: purified recombinant GST-20P1F12/TMPRSS2 can cleave a universal substrate, namely casein in a dose dependent manner
